Source: publication PMC10938568 (Science Advances, 2021)
Read-outs that look alike come from different tables or passages of the source.

B1: GST-PreScission-p62 FIR 4P (domain or fragment)
chain: MESDNCSGGDDDWTHLSSKEVDPETGELQSLQMPESEGPEELDPEQEGPTGLKEA
B2: His8-TEV-GABARAP (1 to 117) (natural protein)
chain: MKFVYKEEHPFEKRRSEGEKIRKKYPDRVPVIVEKAPKARIGDLDKKKYLVPSDLTVGQFYFLIRKRIHLRAEDALFFFVNNVIPPTSATMGQLYQEHHEEDFFLYIAYSDESVYGL

Key:
Experiment in all cases: SPR
[1] = biological target: B2
His8-TEV-LC3B (1 to 125) = His8-TEV-LC3B (1 to 125) (human, UniProt Q9GZQ8 1-120)
[2] = biological target: T1, Biotinylated FLCN-8xGlycine-AviTag/FNIP2 (human, UniProt Q8NFG4;Q9P278, biotin on the AviTag)
[3] = biological target: T1, Biotinylated FLCN-8xGlycine-AviTag/FNIP2; remark: listed apart in the source

Binder | Kd [1] | Kd (His8-TEV-LC3B (1 to 125)) | Kd [2] | Kd [3]
B1 | 670 ± 80 nM | 820 ± 40 nM | – | –
B2 | – | – | 0.071 ± 0.01 nM | 0.3 ± 0.018 nM
